No end group written: not given here.
Columns and labels:
HER2蛋白 (表达HER2蛋白的细胞) [1] = molecular target: HER2蛋白 (表达HER2蛋白的细胞) (UniProt P04626); assay: flow cytometry on 1×10^6 cells expressing HER2, 0.5 μg antibody, Alexa Fluor 488 goat anti-rabbit secondary
HER2蛋白 (表达HER2蛋白的细胞) [2] = molecular target: HER2蛋白 (表达HER2蛋白的细胞) (UniProt P04626); assay: flow cytometry on cells expressing HER2, against the blank control without antibody
HER2抗原合成多肽 (SEQ ID No.1) = molecular target: T1, HER2抗原合成多肽 (SEQ ID No.1) (not fully specified; also: coupled to KLH or OVA for immunisation); assay: ELISA screening of hybridoma clones on the HER2 antigen (SEQ ID NO.1)
T1 construct: It was coupled to KLH or OVA for immunisation; also called HER2的多肽
T1 peptide: PTAENPEYLGLDVPV

B1: 246G0D3抗HER2重组兔单克隆抗体 (antibody, V domains shown)
VH: QSVEESGGRLVTPGTPLTLTCTVSGFSLSSYAMSWVRQAPGKGLEYIGIIRSSGSTYYASWAKGRFTISKTSTTVDLKLTSPTSEDTATYFCCRGSPGSGSGYSVLWGQGTLVTVSS
VL: AAVLTQTPSPVSAAVGGTVSISCQSSKSVYNNNCLAWYQQKPGQPPKLLIYGASTLASGVPSRFKGSGSGTQFTLTISDVQCDDAATYYCAGGYTDDSDDGFGGGTEVVVK
notes: also called 246G0D3抗体; 246G0D3抗HER2单克隆抗体
MFI (HER2蛋白 (表达HER2蛋白的细胞) [1]): 2480 | fold MFI against the blank control (HER2蛋白 (表达HER2蛋白的细胞) [2]): 251 倍 | binding result (HER2抗原合成多肽 (SEQ ID No.1)): binds

— patent publication CN114736300A (SUZHOU ABCARTA MEDICAL TECH CO LTD, dated 2022)
